This note sets out measurements from patent publication US20100167314A1.

This assay deals with human pNBC1 (pancreas-type Na/HCO3 cotransporter 1) (human), Q9Y6R1. Briefly: cell-based or functional assay.
Sequence of human pNBC1 (pancreas-type Na/HCO3 cotransporter 1) (human), Q9Y6R1 (Q9Y6R1 whole entry): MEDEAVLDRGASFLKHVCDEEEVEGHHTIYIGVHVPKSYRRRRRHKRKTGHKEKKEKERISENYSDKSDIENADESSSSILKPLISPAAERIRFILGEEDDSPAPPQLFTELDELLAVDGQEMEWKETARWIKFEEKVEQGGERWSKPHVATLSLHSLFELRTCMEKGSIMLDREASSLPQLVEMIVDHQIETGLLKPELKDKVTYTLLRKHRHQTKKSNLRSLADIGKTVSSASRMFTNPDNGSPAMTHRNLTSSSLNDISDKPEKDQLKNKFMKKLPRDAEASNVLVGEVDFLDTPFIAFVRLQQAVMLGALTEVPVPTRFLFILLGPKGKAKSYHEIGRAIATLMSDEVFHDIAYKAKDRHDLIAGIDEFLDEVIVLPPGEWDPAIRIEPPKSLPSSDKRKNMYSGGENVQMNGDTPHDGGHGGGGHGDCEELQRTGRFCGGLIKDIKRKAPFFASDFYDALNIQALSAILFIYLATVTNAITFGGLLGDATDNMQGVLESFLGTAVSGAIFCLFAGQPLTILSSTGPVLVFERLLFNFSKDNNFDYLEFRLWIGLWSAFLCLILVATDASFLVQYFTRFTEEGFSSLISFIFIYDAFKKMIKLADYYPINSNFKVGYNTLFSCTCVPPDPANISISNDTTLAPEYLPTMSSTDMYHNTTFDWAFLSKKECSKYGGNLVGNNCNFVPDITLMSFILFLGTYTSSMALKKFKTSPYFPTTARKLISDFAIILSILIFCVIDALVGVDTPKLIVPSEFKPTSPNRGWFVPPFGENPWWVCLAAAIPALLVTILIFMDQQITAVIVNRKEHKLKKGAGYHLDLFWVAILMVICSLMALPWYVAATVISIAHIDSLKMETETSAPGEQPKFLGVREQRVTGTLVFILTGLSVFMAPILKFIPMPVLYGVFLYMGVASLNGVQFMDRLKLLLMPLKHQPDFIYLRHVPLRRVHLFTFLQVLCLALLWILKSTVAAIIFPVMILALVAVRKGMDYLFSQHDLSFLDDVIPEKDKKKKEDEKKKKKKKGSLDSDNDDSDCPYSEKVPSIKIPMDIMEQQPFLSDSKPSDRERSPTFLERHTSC

B1: mouse IRBIT (IP3 receptor-binding protein; IP3R-binding protein released with inositol 1,4,5-trisphosphate), Q80SW1 1-530 (protein)
chain: MSMPDAMPLPGVGEELKQAKEIEDAEKYSFMATVTKAPKKQIQFADDMQEFTKFPTKTGRRSLSRSISQSSTDSYSSAASYTDSSDDEVSPREKQQTNSKGSSNFCVKNIKQAEFGRREIEIAEQDMSALISLRKRAQGEKPLAGAKIVGCTHITAQTAVLIETLCALGAQCRWSACNIYSTQNEVAAALAEAGVAVFAWKGESEDDFWWCIDRCVNMDGWQANMILDDGGDLTHWVYKKYPNVFKKIRGIVEESVTGVHRLYQLSKAGKLCVPAMNVNDSVTKQKFDNLYCCRESILDGLKRTTDVMFGGKQVVVCGYGEVGKGCCAALKALGAIVYITEIDPICALQACMDGFRVVKLNEVIRQVDVVITCTGNKNVVTREHLDRMKNSCIVCNMGHSNTEIDVTSLRTPELTWERVRSQVDHVIWPDGKRVVLLAEGRLLNLSCSTVPTFVLSITATTQALALIELYNAPEGRYKQDVYLLPKKMDEYVASLHLPSFDAHLTELTDDQAKYLGLNKNGPFKPNYYRY
In turn, B1 gave a current change at a membrane potential of -25 mV when ND96 solution was replaced by ND96+HCO3- solution (voltage clamp, Xenopus oocytes) of 6 to 7 times.
